Assay results taken from US20180057596A1 (AstraZeneca / MedImmune, published 2018).
Changes are numbered by the printed parent chain.

T1: human IL4Rα/Fc (R and D Systems 604-4R) (human, UniProt P24394 26-231, limits assumed, biotin labelled in the assay of Example 5)
T1 construct: bought protein; also called IL-4Rα/Fc (R&D systems Cat. No. 604-4R-050); not shown: Fc part of the bought fusion
T1 sequence (looked up): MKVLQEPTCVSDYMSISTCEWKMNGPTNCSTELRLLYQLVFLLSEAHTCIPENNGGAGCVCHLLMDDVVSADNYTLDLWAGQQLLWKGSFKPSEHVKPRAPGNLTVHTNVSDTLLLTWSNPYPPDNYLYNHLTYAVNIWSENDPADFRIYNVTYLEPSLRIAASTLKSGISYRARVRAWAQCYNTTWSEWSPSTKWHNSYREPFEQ

B1: Antibody 3 scFv (scFv, V domains shown)
VH: QVQLVQSGAEVKKPGASVKVSCKASGYAFTSYYMHWARQAPGQGLEWMGIINPSGGSTSYAQKFQGRVTMTRDTSTSTVYMELSSLRSEDTAVYYCARGKLLKNPWGKGTLVTVSS
VL: QSVLTQPPSVSAAPGQKVTISCSGGSSNIGNSYVSWYQQLPGTAPKLLIYDNNKRPSGIPDRFSGSKSGTSATLAITGLQTGDEADYYCGTWFGTPASNYVFGTGTKLTVL
notes: tested as purified scFv
B2: Antibody 20 scFv (scFv, V domains shown)
VH: B1 VH with L101Y, L102W, K103M, N104Y, P105D
VL: B1 VL with F93D, G94T, T95S, P96T, A97V, S98W, N99E, Y100W, V101P
notes: tested as purified scFv
B3: Antibody 11 scFv (scFv, V domains shown)
VH: B1 VH with L101W, L102W, K103F, N104Y, P105D
VL: B1 VL with F93D, G94T, T95S, A97S, S98M, N99I, Y100P, V101L
notes: tested as purified scFv
B4: Antibody 10 scFv (scFv, V domains shown)
VH: B1 VH with L101W, L102W, K103L, N104Y, P105D
VL: B1 VL with F93D, G94T, T95S, P96T, A97V, S98L, N99T, Y100P, V101I
notes: tested as purified scFv
B5: Antibody 32 scFv (scFv, V domains shown)
VH: B1 VH with L101Y, L102W, K103M, N104Y, P105D
VL: B1 VL with Y88F, F93D, G94T, T95S, P96T, S98W, N99E, Y100W, V101P
notes: tested as purified scFv
B6: Antibody 34 scFv (scFv, V domains shown)
VH: B1 VH with T69S, L101Y, L102W, K103M, N104Y, P105D
VL: B1 VL with Y88F, F93D, G94T, T95S, P96T, A97V, S98W, N99E, Y100W, V101P
notes: tested as purified scFv
B7: Antibody 36 scFv (scFv, V domains shown)
VH: B1 VH with T58A, L101Y, L102W, K103M, N104Y, P105D
VL: B1 VL with F93D, G94S, T95S, P96T, A97V, S98W, N99E, Y100W, V101P
notes: tested as purified scFv
B8: Antibody 17 scFv (scFv, V domains shown)
VH: B1 VH with L101W, L102W, K103W, N104Q, P105H
VL: B1 VL with F93D, G94T, T95S, A97V, S98D, N99R, Y100P, V101I
notes: tested as purified scFv
B9: Antibody 21 scFv (scFv, V domains shown)
VH: B1 VH with T58A, L101Y, L102W, K103M, N104Y, P105D
VL: QSVLTQPPSVSAAPGQKVTISCSGGSSNIGNSYVSWYQQLPGTAPKLLIYDNNKRPSGIPDRFSGSKSGTSATLAITGLQTGDEAVYFCGTWDTSTVWEWPFGTGTKLTVL
notes: tested as purified scFv
B10: Antibody 15 scFv (scFv, V domains shown)
VH: B1 VH with L101W, L102W, K103L, N104Y, P105N
VL: B9 VL with V86D, F88Y, V97H, W98R, E99H, W100P, P101L
notes: tested as purified scFv
B11: Antibody 2 scFv (scFv, V domains shown)
VH: B1 VH with L101W, L102W, K103L, N104Y, P105N
VL: B1 VL with F93D, G94T, T95S, P96Q, A97P, S98P, Y100P, V101L
notes: tested as purified scFv
B12: Antibody 18 scFv (scFv, V domains shown)
VH: B1 VH with L101W, L102W, K103W, N104Q, P105H
VL: B9 VL with V86D, F88Y, V97T, W98P, E99M, W100P, P101V
notes: tested as purified scFv
B13: Antibody 16 scFv (scFv, V domains shown)
VH: B1 VH with L101W, L102W, K103L, N104Y, P105N
VL: B9 VL with V86D, F88Y, V97T, W98Y, E99H, W100P, P101I
notes: tested as purified scFv
B14: Antibody 26 scFv (scFv, V domains shown)
VH: B1 VH with L101Y, L102W, K103M, N104Y, P105D
VL: B9 VL with V86D
notes: tested as purified scFv
B15: Antibody 23 scFv (scFv, V domains shown)
VH: B1 VH with K12R, L101Y, L102W, K103M, N104Y, P105D
VL: B9 VL with S32N, S57P, V86D, F88Y
notes: tested as purified scFv
B16: Antibody 12 scFv (scFv, V domains shown)
VH: B1 VH with L101W, L102W, K103F, N104Y, P105D
VL: B9 VL with V86D, F88Y, V97T, W98M, E99Y, W100P, P101L
notes: tested as purified scFv
B17: Antibody 4 scFv (scFv, V domains shown)
VH: B1 VH with L101W, L102W, K103L, N104Y, P105N
VL: B9 VL with V86D, F88Y, T96S, V97P, W98P, E99Q, W100P, P101I
notes: tested as purified scFv
B18: Antibody 6 scFv (scFv, V domains shown)
VH: B1 VH with L101Y, L102W, K103M, N104Y, P105D
VL: B9 VL with V86D, F88Y, V97T, W98Y, E99H, W100P, P101I
notes: tested as purified scFv
B19: Antibody 5 scFv (scFv, V domains shown)
VH: B1 VH with L101W, L102W, K103L, N104Y, P105D
VL: B9 VL with V86D, F88Y, T96S, V97P, W98P, E99Q, W100P, P101I
notes: tested as purified scFv
B20: Antibody 29 scFv (scFv, V domains shown)
VH: B1 VH with L101Y, L102W, K103M, N104Y, P105D, L111R
VL: B9 VL with V86D, F88Y, T96P
notes: tested as purified scFv
B21: Antibody 7 scFv (scFv, V domains shown)
VH: B1 VH with L101W, L102W, K103W, N104Q, P105Y
VL: B9 VL with V86D, F88Y, T96S, V97P, W98P, E99Q, W100P, P101I
notes: tested as purified scFv
B22: Antibody 25 scFv (scFv, V domains shown)
VH: B1 VH with S54R, T58A, T69S, L101Y, L102W, K103M, N104Y, P105D
VL: B9 VL with S71T, V86D, F88Y, D93V
notes: tested as purified scFv
B23: Antibody 19 scFv (scFv, V domains shown)
VH: B1 VH with L101W, L102W, K103W, N104Q, P105H
VL: B9 VL with V86D, F88Y, V97T, W98Y, E99H, W100P, P101I
notes: tested as purified scFv
B24: Antibody 9 scFv (scFv, V domains shown)
VH: B1 VH with L101W, L102W, K103L, N104Y, P105N
VL: B9 VL with V86D, F88Y, V97T, W98M, E99Y, W100P, P101L
notes: tested as purified scFv
B25: Antibody 39 scFv (scFv, V domains shown)
VH: B1 VH with S54R, L101Y, L102W, K103M, N104Y, P105D
VL: B9 VL with V86D, F88Y, V97A
notes: tested as purified scFv
B26: Antibody 8 scFv (scFv, V domains shown)
VH: B1 VH with L101W, L102W, K103W, N104Q, P105Y
VL: B9 VL with V86D, F88Y, V97T, W98Y, E99H, W100P, P101I
notes: tested as purified scFv
B27: Antibody 22 scFv (scFv, V domains shown)
VH: B1 VH with L101Y, L102W, K103M, N104Y, P105D
VL: B9 VL with S2P, V86D
notes: tested as purified scFv
B28: Antibody 24 scFv (scFv, V domains shown)
VH: B1 VH with S54R, L101Y, L102W, K103M, N104Y, P105D
VL: B9 VL with V86D
notes: tested as purified scFv
B29: Antibody 24PGL scFv (scFv, V domains shown)
VH: B1 VH with A37V, S54R, L101Y, L102W, K103M, N104Y, P105D
VL: B9 VL with A75G, V86D
notes: tested as purified scFv
B30: Antibody 13 scFv (scFv, V domains shown)
VH: B1 VH with L101W, L102W, K103L, N104Y, P105D
VL: B9 VL with V86D, F88Y, V97T, W98L, E99Q, W100P, P101L
notes: tested as purified scFv
B31: Antibody 14 scFv (scFv, V domains shown)
VH: B1 VH with L101W, L102W, K103L, N104Y, P105N
VL: B1 VL with F93D, G94T, T95S, A97P, S98T, N99K, Y100P, V101L
notes: tested as purified scFv

biological target: T2, cynomolgus IL4Rα/Fc HIS6 (HEK expressed) (cynomolgus monkey); assay: HTRF receptor-ligand assay, purified scFv against biotinylated cynomolgus IL4
T2 construct: also called Cyno IL4R; cynomolgus IL-4Rα HIS Fc (in house HEK-EBNA derived); not shown: HIS6 tag
T2 sequence (chain, as listed by the source): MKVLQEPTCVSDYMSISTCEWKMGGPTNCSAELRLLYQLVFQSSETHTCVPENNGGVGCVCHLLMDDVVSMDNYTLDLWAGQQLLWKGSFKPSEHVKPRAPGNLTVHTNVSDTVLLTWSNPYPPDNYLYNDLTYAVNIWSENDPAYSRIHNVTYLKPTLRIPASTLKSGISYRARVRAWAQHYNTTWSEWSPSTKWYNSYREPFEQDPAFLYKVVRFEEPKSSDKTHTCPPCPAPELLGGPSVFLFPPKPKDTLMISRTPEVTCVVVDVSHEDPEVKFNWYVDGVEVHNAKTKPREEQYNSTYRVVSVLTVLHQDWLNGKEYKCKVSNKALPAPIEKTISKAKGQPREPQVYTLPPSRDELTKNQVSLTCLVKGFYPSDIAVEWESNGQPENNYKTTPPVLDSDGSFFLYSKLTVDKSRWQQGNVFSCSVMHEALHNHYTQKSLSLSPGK

Binder | Ki
B1 | 48 nM
B2 | 4.2 nM
B3 | 26.1 nM
B4 | 19.6 nM
B5 | 1.3 nM
B6 | 1.2 nM
B7 | 5.3 nM
B8 | 43.5 nM
B9 | 1 nM
B10 | 32.3 nM
B11 | 4.3 nM
B12 | 56.5 nM
B13 | 8.7 nM
B14 | 1.2 nM
B15 | 4.8 nM
B16 | 7.2 nM

Binder | Ki
B17 | 6.8 nM
B18 | 3.5 nM
B19 | 3.8 nM
B20 | 2.4 nM
B21 | 16.5 nM
B22 | 1.3 nM
B23 | 18.5 nM
B24 | 12.9 nM
B25 | 1.6 nM
B26 | 9.4 nM
B27 | 2.6 nM
B28 | 0.8 nM
B29 | 0.7 nM
B30 | 22.2 nM
B31 | 27.7 nM

biological target: T1, human IL4Rα/Fc (R and D Systems 604-4R); assay: HTRF receptor-ligand assay, purified scFv against biotinylated human IL4

Binder | Ki
B1 | 0.5 nM
B2 | 0.7 nM
B3 | 0.7 nM
B4 | 0.5 nM
B5 | 0.075 nM
B6 | 0.056 nM
B7 | 0.1 nM
B8 | 0.9 nM
B9 | 0.031 nM
B10 | 1 nM
B11 | 0.6 nM
B12 | 0.7 nM
B13 | 0.4 nM
B14 | 0.1 nM
B15 | 0.2 nM
B16 | 0.3 nM

Binder | Ki
B17 | 0.8 nM
B18 | 0.3 nM
B19 | 0.6 nM
B20 | 0.061 nM
B21 | 1.1 nM
B22 | 0.039 nM
B23 | 0.8 nM
B24 | 0.1 nM
B25 | 0.027 nM
B26 | 0.4 nM
B27 | 0.3 nM
B28 | 0.049 nM
B29 | 0.065 nM
B30 | 0.3 nM
B31 | 0.6 nM
